Data: US8106168B2, “Metalloproteinase binding proteins” (Dyax Corp., priority 2005, dated 2012)

T1: MMP-2 (Homo sapiens, UniProt P08253)
T1 sequence (P08253 110-660): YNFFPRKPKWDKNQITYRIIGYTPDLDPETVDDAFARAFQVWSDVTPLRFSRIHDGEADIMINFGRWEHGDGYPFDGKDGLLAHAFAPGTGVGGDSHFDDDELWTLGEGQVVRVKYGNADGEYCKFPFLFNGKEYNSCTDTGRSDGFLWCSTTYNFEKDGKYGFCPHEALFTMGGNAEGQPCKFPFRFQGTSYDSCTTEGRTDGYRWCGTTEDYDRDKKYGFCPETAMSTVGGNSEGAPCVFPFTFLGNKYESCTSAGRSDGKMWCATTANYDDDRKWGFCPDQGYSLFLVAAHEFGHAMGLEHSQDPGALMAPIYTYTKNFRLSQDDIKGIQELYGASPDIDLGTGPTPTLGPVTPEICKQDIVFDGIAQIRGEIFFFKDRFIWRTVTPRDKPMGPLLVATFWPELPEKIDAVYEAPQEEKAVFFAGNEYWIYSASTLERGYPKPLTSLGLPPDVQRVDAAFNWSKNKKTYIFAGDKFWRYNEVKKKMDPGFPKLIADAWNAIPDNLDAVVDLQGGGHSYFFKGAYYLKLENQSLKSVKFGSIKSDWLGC

T2: MMP-7 (Homo sapiens, UniProt P09237)
T2 sequence (P09237 95-267): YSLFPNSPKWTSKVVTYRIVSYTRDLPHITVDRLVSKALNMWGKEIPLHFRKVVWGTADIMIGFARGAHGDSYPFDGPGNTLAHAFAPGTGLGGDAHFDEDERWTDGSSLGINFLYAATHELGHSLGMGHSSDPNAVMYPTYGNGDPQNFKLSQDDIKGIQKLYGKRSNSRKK

B1: M0038-F01: human antibody (Fab, IgG) that binds and inhibits MMP-14; HC SEQ ID NO: 156, LC SEQ ID NO: 157 (antibody, V domains shown)
VH: EVQLLESGGGLVQPGGSLRLSCAASGFTFSLYSMNWVRQAPGKGLEWVSSIYSSGGSTLYADSVKGRFTISRDNSKNTLYLQMNSLRAEDTAVYYCARGRAFDIWGQGTMVTVSS
VL: QDIQMTQSPSSLSAFVGDKVTITCRASQSVGTYLNWYQQKAGKAPELLIYATSNLRSGVPSRFSGSGSGTDFTLTINTLQPEDFATYYCQQSYSIPRFTFGPGTKVDIK
modifications: Synthetically generated peptide
B2: M0040-A06: human antibody (Fab, IgG) that binds and inhibits MMP-14; HC SEQ ID NO: 162, LC SEQ ID NO: 163 (antibody, V domains shown)
VH: EVQLLESGGGLVQPGGSLRLSCAASGFTFSYYGMYWVRQAPGKGLEWVSSISSSGGYTDYADSVKGRFTISRDNSKNTLYLQMNSLRAEDTAVYYCARRIKYYDIEGEGAFDIWGQGTMVTVSS
VL: QDIVMTQTPPSLPVNPGEPASISCRSSQSLLHRNGYNYLDWYLQKPGQSPQLLIHLGSYRASGVPDRFSGSGSGTDFTLKISRVEAEDVGVYYCMQPLQTPFTFGPGTKVDIK
modifications: Synthetically generated peptide
B3: M0043-G02: human antibody (Fab, IgG) that binds and inhibits MMP-14; HC SEQ ID NO: 166, LC SEQ ID NO: 167 (antibody, V domains shown)
VH: EVQLLESGGGLVQPGGSLRLSCAASGFTFSWYPMFWVRQAPGKGLEWVSGIYSSGGPTDYADSVKGRFTISRDNSKNTLYLQMNSLRAEDTAVYYCAKDTLGRYYDFWSGYSYGMDVWGQGTTVTVSS
VL: QDIQMTQSPGTLSLSPGERATLSCRASQSVSSSYLAWYQQKPGQAPRLLIYGASSRATGIPDRFSGSGSGTDFTLTISRLEPEDFAVYYCQSGVTFGGGTKVEIK
modifications: Synthetically generated peptide

Assays:
[1] = system: activation of pro-MMP-2 by MMP-14 in PMA-activated HT-1080 cells; experiment: Gelatin zymogram, pro-MMP-2 activation in HT-1080 cells; format: cell-based, human; details: gelatin zymography of conditioned media after 3 days; antibodies 10 μg/ml, GM6001 10 μM
Method: The ability of anti-MMP-14 IgGs to inhibit the activation of pro-MMP-2 by MMP-14 was examined by gelatin zymogram experiments performed with PMA-activated HT-1080 cells. M0033-H07 and M0038-F01 were tested for their ability to inhibit MMP-14 in this assay. HT1080 cells (well-known to express MMP-14 and MMP-2) were seeded at 5×10^5 cells/well at Day 0. […] HT-1080 cells cultured in the presence of 20 ng/ml of PMA were used as a positive control.
After 3 days of incubation, conditioned media were collected and gelatinolytic activities were analyzed by gelatin zymography as described previously (Maquoi et al, J Biol Chem 2000; 275:11368-78). When HT-1080 cells are activated with a phorbol ester, pro-MMP-2 is activated into MMP-2 (lane 1).

MDA-MB-435 GFP tumors = experiment: MDA-MB-435 GFP orthotopic breast tumor growth; format: in vivo, mouse; details: for Tumor Mass (±SD): excised primary tumor
Description: Fragments of MDA-MB-435 GFP (MDA-MB-435 cells expressing green fluorescent protein) tumors were transplanted by surgical orthotopic implantation (SOI) into the right second mammary gland. Treatment was started on day 15 after SOI when the volume of primary tumors reached about 85 mm^3.
Mice were sacrificed at day 61 after the start of the treatment and tumors (primary and metastases) were identified by fluorescent imaging. Additionally, primary tumors were excised and weighed. […] However, M0038-F01 was not effective in reducing lymph node or lung metastases in this experiment.

B16F1 melanoma tumors = experiment: B16F1 melanoma subcutaneous tumor growth; format: in vivo, mouse; details: M0038-F01 10, 1 or 0.1 mg/kg Q2d IP; doxorubicin 5 mg/kg weekly IP
Description: B16F1 melanoma cells were implanted into Female C57/BL6 (CR) mice (4-6 Weeks old) mice by subcutaneous injection.

[2] = system: BT747 breast cancer tumor fragments; experiment: BT747 breast tumor growth; format: in vivo, mouse; details: small initial tumor size groups; M0038-F01 10, 1 or 0.1 mg/kg Q2d IP; trastuzumab 20 mg/kg
Method: Fragments (approximately 1 mm^3) of BT747 breast cancer tumor fragments were implanted into the flanks of female HRLN CB.17 SCID mice. […] All groups were dosed by intraperitoneal (IP) injection. Tumor volume was measured biweekly.

[3] = system: Streptococcus cell wall (SCW)-induced arthritis, knee joints; experiment: SCW-induced arthritis, joint swelling; format: in vivo, mouse; details: 2, 6 or 10 mg/kg IP at day 13, 16, 20 and 23; technecium uptake
Method: Antigen-induced arthritis, a model of rheumatoid arthritis, was induced by intraarticular injection of Streptococcus cell wall (SCW, […]) into the knee joints of C57B16 mice at day 0, 7, 14 and 21.
Mice were assorted into groups of six animals each and treated (by IP injection) with M0038-F01 (2, 6, or 10 mg/kg), a control isotype-matched antibody (control, 20 mg/ml), or etanercept (ENBREL®, 5 mg/ml) at day 13, 16, 20, and 23. Joint swelling (measured by technecium uptake) was measured at day 15, 16, 22, 23 and 28.

MMP-2 = target: T1, MMP-2; experiment: Cross-reactivity of anti-MMP-14 IgGs, enzymatic activity: MMP-2; format: biochemical; details: 1 μM anti-MMP-14 IgG
Method: (§1) The cross-reactivity of exemplary anti-MMP-14 IgGs and Fabs with other human MMPs and TACE (TNF-alpha converting enzyme) was examined. MMP and TACE enzymatic activity was monitored in the absence and presence of 1 μM anti-MMP-14 IgG antibody. Inhibition (Y) of activity ranged from approximately 50-80% of the reaction rate observed in the absence of antibody. “X” indicates no inhibition was observed. Cross-reactivity was not determined for MMP-17 because protein activity could not be detected.
(§2) For the studies summarized in Table 12, six anti-MMP-14 IgGs were selected for cross-reactivity testings: M0043-G02, M0040-A06, M0037-D01, M037-C09, M0038-F01, M0033-H07.

MMP-3 = MMP-3 (Homo sapiens, UniProt P08254); experiment: Cross-reactivity of anti-MMP-14 IgGs, enzymatic activity: MMP-3; format: biochemical; details: 1 μM anti-MMP-14 IgG
Sequence of MMP-3 (P08254 100-477): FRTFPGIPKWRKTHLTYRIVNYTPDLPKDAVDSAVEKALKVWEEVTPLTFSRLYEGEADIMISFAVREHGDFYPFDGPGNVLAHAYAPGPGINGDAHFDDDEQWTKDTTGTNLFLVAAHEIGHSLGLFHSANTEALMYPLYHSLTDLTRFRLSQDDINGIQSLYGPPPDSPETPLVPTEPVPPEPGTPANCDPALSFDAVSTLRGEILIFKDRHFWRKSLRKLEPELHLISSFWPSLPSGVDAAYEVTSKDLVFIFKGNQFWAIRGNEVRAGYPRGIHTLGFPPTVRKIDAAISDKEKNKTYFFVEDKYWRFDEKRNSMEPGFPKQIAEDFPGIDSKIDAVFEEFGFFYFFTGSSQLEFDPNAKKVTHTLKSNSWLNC
Method: as §1, §2

MMP-7 = target: T2, MMP-7; experiment: Cross-reactivity of anti-MMP-14 IgGs, enzymatic activity: MMP-7; format: biochemical; details: 1 μM anti-MMP-14 IgG
Method: as §1, §2

MMP-9 = MMP-9 (Homo sapiens, UniProt P14780); experiment: Cross-reactivity of anti-MMP-14 IgGs, enzymatic activity: MMP-9; format: biochemical; details: 1 μM anti-MMP-14 IgG
Sequence of MMP-9 (P14780 94-707): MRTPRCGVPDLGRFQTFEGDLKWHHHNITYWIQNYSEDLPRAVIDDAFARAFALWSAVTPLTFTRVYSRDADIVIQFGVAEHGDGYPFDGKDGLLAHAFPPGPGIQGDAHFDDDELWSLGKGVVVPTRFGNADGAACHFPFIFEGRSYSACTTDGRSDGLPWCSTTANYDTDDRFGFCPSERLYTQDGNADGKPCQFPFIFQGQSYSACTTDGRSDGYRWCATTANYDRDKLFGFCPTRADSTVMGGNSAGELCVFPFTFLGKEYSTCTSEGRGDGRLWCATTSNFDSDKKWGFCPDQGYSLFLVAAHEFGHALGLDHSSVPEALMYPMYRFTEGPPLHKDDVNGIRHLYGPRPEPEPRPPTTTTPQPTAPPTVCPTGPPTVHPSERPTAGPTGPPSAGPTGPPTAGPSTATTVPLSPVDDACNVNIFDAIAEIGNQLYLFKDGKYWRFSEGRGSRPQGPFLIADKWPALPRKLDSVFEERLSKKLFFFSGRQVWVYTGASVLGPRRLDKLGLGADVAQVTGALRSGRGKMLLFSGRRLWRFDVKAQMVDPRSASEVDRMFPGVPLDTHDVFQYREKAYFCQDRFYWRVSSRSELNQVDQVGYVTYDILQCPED
Method: as §1, §2

MMP-12 = MMP-12 (Homo sapiens, UniProt P39900); experiment: Cross-reactivity of anti-MMP-14 IgGs, enzymatic activity: MMP-12; format: biochemical; details: 1 μM anti-MMP-14 IgG
Sequence of MMP-12 (P39900 106-470): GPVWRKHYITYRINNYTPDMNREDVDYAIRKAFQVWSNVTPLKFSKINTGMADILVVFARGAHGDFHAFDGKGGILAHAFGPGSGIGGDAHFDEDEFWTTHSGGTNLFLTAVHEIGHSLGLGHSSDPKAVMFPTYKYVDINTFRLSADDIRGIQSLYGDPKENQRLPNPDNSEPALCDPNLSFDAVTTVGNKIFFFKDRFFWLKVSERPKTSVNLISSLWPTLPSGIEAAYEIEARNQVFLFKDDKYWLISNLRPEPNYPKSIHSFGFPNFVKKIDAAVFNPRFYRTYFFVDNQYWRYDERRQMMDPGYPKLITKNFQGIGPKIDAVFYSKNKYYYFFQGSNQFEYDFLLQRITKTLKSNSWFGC
Method: as §1, §2

MMP-13 = MMP-13 (Homo sapiens, UniProt P45452); experiment: Cross-reactivity of anti-MMP-14 IgGs, enzymatic activity: MMP-13; format: biochemical; details: 1 μM anti-MMP-14 IgG
Method: as §1, §2

MMP-24 = MMP-24 (Homo sapiens, UniProt Q9Y5R2); experiment: Cross-reactivity of anti-MMP-14 IgGs, enzymatic activity: MMP-24; format: biochemical; details: 1 μM anti-MMP-14 IgG
Sequence of MMP-24 (Q9Y5R2 156-645): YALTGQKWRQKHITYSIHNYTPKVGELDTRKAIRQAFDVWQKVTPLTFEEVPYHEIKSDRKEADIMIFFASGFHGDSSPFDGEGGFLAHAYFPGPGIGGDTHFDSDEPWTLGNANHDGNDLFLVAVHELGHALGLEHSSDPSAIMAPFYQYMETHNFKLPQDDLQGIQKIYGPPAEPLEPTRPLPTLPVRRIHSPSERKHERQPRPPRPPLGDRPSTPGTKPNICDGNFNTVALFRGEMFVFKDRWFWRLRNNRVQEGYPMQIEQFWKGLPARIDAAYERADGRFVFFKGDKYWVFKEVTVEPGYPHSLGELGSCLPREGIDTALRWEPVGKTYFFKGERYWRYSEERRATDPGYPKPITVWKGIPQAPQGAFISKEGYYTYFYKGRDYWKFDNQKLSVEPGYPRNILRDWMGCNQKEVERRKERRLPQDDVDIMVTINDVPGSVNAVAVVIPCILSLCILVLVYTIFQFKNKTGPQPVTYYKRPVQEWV
Method: as §1, §2

| Molecule | pro-MMP-2 activation by MMP-14 [1] | pro-MMP-9 expression [1] | Tumor Mass (±SD) (MDA-MB-435 GFP tumors; 0.1 mg/kg Q2d IP, day 61) | Tumor Mass (±SD) (MDA-MB-435 GFP tumors; 1 mg/kg Q2d IP, day 61, * p≦0.05 compared to Control) | Tumor Mass (±SD) (MDA-MB-435 GFP tumors; 10 mg/kg (F01 and A2 Q2d IP; taxotere QW×3 i.v.), day 61, * p≦0.05 compared to Control) | tumor volume (MDA-MB-435 GFP tumors; M0038-F01 1 or 10 mg/kg Q2d IP, taxotere 10 mg/kg QW×3 i.v.) | lymph node or lung metastases (MDA-MB-435 GFP tumors; fluorescent imaging, day 61) | tumor growth (B16F1 melanoma tumors) | tumor growth [2] | joint swelling [3] | Cross reactivity: inhibition of MMP-2 activity (MMP-2) | Cross reactivity: inhibition of MMP-3 activity (MMP-3) | Cross reactivity: inhibition of MMP-7 activity (MMP-7) | Cross reactivity: inhibition of MMP-9 activity (MMP-9) | Cross reactivity: inhibition of MMP-12 activity (MMP-12) | Cross reactivity: inhibition of MMP-13 activity (MMP-13) | Cross reactivity: inhibition of MMP-24 activity (MMP-24) |
| --- | --- | --- | --- | --- | --- | --- | --- | --- | --- | --- | --- | --- | --- | --- | --- | --- | --- |
| B1 | completely inhibits | No stimulation | 1.54 ± 0.91 | 0.86 ± 0.21* | 0.82 ± 0.35* | reduction of tumor volume | not effective | effective in reducing tumor growth | inhibition of tumor growth | did not have an effect |  |  |  |  |  |  |  |
| B2 |  |  |  |  |  |  |  |  |  |  | Y (Inhibition (Y) of activity ranged from approximately 50-80% of the reaction rate observed in the absence of antibody) | Y (Inhibition (Y) of activity ranged from approximately 50-80% of the reaction rate observed in the absence of antibody) | Y (Inhibition (Y) of activity ranged from approximately 50-80% of the reaction rate observed in the absence of antibody) | Y (Inhibition (Y) of activity ranged from approximately 50-80% of the reaction rate observed in the absence of antibody) | Y (Inhibition (Y) of activity ranged from approximately 50-80% of the reaction rate observed in the absence of antibody) | Y (Inhibition (Y) of activity ranged from approximately 50-80% of the reaction rate observed in the absence of antibody) | Y (Inhibition (Y) of activity ranged from approximately 50-80% of the reaction rate observed in the absence of antibody) |
| B3 |  |  |  |  |  |  |  |  |  |  | Y (Inhibition (Y) of activity ranged from approximately 50-80% of the reaction rate observed in the absence of antibody) |  |  | Y (Inhibition (Y) of activity ranged from approximately 50-80% of the reaction rate observed in the absence of antibody) | Y (Inhibition (Y) of activity ranged from approximately 50-80% of the reaction rate observed in the absence of antibody) | Y (Inhibition (Y) of activity ranged from approximately 50-80% of the reaction rate observed in the absence of antibody) | Y (Inhibition (Y) of activity ranged from approximately 50-80% of the reaction rate observed in the absence of antibody) |
